Data reported in the Immune Epitope Database (IEDB).

Tests used:
HLA-A*68:02 = assay: IEDB peptide-MHC binding, cellular MHC/competitive/fluorescence; ≥ and ≤ were set here for values at or beyond the usual limits of such assays
HLA-A*02:01 = assay: IEDB peptide-MHC binding, purified MHC/competitive/radioactivity; ≥ and ≤ were set here for values at or beyond the usual limits of such assays
HLA-A*02:03 = assay: as above
HLA-A*02:02 = assay: as above
HLA-A*02:06 = assay: as above
[1] = source organism: Vaccinia virus WR
[2] = source organism: Hepacivirus hominis
[3] = source organism: Mammarenavirus machupoense
[4] = source organism: Mammarenavirus lassaense

Row | Sequence | IC50 (HLA-A*68:02; [1]) [nM] | IC50 (HLA-A*02:01; [1]) [nM] | IC50 (HLA-A*02:03; [1]) [nM] | IC50 (HLA-A*02:02; [1]) [nM] | IC50 (HLA-A*02:06; [1]) [nM] | also measured
1 | SINNQLMYDI | 6460 | 2380 | 482 | 492 | 4840 | –
2 | SLGKSPLPSL | 12800 | 134 | 47 | 4.1 | 1430 | –
3 | VLWTVFHGA | – | – | – | – | – | IC50 (HLA-A*68:02; [2]): 34800 nM; IC50 (HLA-A*02:01; [2]): 100 nM; IC50 (HLA-A*02:03; [2]): 836 nM; IC50 (HLA-A*02:02; [2]): 759 nM; IC50 (HLA-A*02:06; [2]): 189 nM
4 | LLSVGVGIYL | – | – | – | – | – | IC50 (HLA-A*68:02; [2]): 20100 nM; IC50 (HLA-A*02:01; [2]): 18 nM; IC50 (HLA-A*02:03; [2]): 568 nM; IC50 (HLA-A*02:02; [2]): 12 nM; IC50 (HLA-A*02:06; [2]): 575 nM
5 | MLCLLLLSV | – | – | – | – | – | IC50 (HLA-A*68:02; [2]): 15400 nM; IC50 (HLA-A*02:01; [2]): 142 nM; IC50 (HLA-A*02:03; [2]): 263 nM; IC50 (HLA-A*02:02; [2]): 210 nM; IC50 (HLA-A*02:06; [2]): 326 nM
6 | GLYIPGTSVI | ≥ 70000 | 1570 | 0.19 | 92 | 3620 | –
7 | KTIISEEYL | 10900 | 694 | 1220 | 916 | 150 | –
8 | LVTSFLLMIV | – | – | – | – | – | IC50 (HLA-A*68:02; source organism: SARS-CoV1): 5740 nM; IC50 (HLA-A*02:01; source organism: SARS-CoV1): 775 nM; IC50 (HLA-A*02:03; source organism: SARS-CoV1): 12 nM; IC50 (HLA-A*02:02; source organism: SARS-CoV1): 31 nM; IC50 (HLA-A*02:06; source organism: SARS-CoV1): 161 nM
9 | IIGEPIIVA | 6390 | 1440 | 4780 | 2320 | 1350 | –
10 | YLSDSDNIKI | 7780 | 53 | 109 | 16 | 906 | –
11 | YIEDELRRAA | 24800 | 573 | 166 | 628 | 204 | –
12 | IMEIVSHLRA | 19700 | 1190 | 396 | 955 | 4410 | –
13 | FQFICNLLLL | – | – | – | – | – | IC50 (HLA-A*68:02; source organism: SARS-CoV1): 9080 nM; IC50 (HLA-A*02:01; source organism: SARS-CoV1): 5.3 nM; IC50 (HLA-A*02:03; source organism: SARS-CoV1): 62 nM; IC50 (HLA-A*02:02; source organism: SARS-CoV1): 7.9 nM; IC50 (HLA-A*02:06; source organism: SARS-CoV1): 0.87 nM
14 | ALLADKFPV | – | – | – | – | – | IC50 (HLA-A*68:02; source organism: SARS-CoV1): 12900 nM; IC50 (HLA-A*02:01; source organism: SARS-CoV1): 1.7 nM; IC50 (HLA-A*02:03; source organism: SARS-CoV1): 604 nM; IC50 (HLA-A*02:02; source organism: SARS-CoV1): 29 nM; IC50 (HLA-A*02:06; source organism: SARS-CoV1): 23 nM
15 | LLDCIMYQS | – | – | – | – | – | IC50 (HLA-A*68:02; [3]): 11300 nM; IC50 (HLA-A*02:01; [3]): 1100 nM; IC50 (HLA-A*02:03; [3]): 2270 nM; IC50 (HLA-A*02:02; [3]): 1540 nM; IC50 (HLA-A*02:06; [3]): 3280 nM
16 | KILSDENYL | 46600 | 121 | 1170 | 196 | 28 | –
17 | ALMTLDDLAI | 7700 | 0.74 | 29 | 14 | 24 | –

Row | Sequence | IC50 (HLA-A*68:02; [1]) [nM] | IC50 (HLA-A*02:01; [1]) [nM] | IC50 (HLA-A*02:03; [1]) [nM] | IC50 (HLA-A*02:02; [1]) [nM] | IC50 (HLA-A*02:06; [1]) [nM] | also measured
18 | WIKDIMTST | 9480 | 948 | 12 | 193 | 136 | –
19 | ILGIIITVGM | 38300 | 1270 | 265 | 288 | 4710 | –
20 | LNISGYNFSL | – | – | – | – | – | IC50 (HLA-A*68:02; [4]): 6000 nM; IC50 (HLA-A*02:01; [4]): 375 nM; IC50 (HLA-A*02:03; [4]): 4550 nM; IC50 (HLA-A*02:02; [4]): 16 nM; IC50 (HLA-A*02:06; [4]): 421 nM
21 | RLIVYPDLGV | – | – | – | – | – | IC50 (HLA-A*68:02; [2]): 6680 nM; IC50 (HLA-A*02:01; [2]): 43 nM; IC50 (HLA-A*02:03; [2]): 15 nM; IC50 (HLA-A*02:02; [2]): 1.9 nM; IC50 (HLA-A*02:06; [2]): 129 nM
22 | YLSGTDDEVI | 15800 | 220 | 211 | 6.3 | 947 | –
23 | FMEEEIKAEM | 16800 | 86 | 3070 | 1030 | 865 | –
24 | KINPLLDEPL | 10100 | 1470 | 304 | 53 | 19 | –
25 | ITLILSNKLL | 6490 | 2200 | 4690 | 1090 | 3890 | –
26 | ILSNKLLYAA | 12000 | 51 | 1110 | 8.1 | 150 | –
27 | ALVFLILCFT | – | – | – | – | – | IC50 (HLA-A*68:02; source organism: SARS-CoV1): 10500 nM; IC50 (HLA-A*02:01; source organism: SARS-CoV1): 161 nM; IC50 (HLA-A*02:03; source organism: SARS-CoV1): 1120 nM; IC50 (HLA-A*02:02; source organism: SARS-CoV1): 209 nM; IC50 (HLA-A*02:06; source organism: SARS-CoV1): 229 nM
28 | GAFMYTKHSM | 9600 | 2000 | 458 | 544 | 3140 | –
29 | FLMSFTILCL | – | – | – | – | – | IC50 (HLA-A*68:02; source organism: SARS-CoV1): 7570 nM; IC50 (HLA-A*02:01; source organism: SARS-CoV1): 9.2 nM; IC50 (HLA-A*02:03; source organism: SARS-CoV1): 213 nM; IC50 (HLA-A*02:02; source organism: SARS-CoV1): 0.82 nM; IC50 (HLA-A*02:06; source organism: SARS-CoV1): 74 nM
30 | QVLQQNNSFI | 9960 | 1470 | 3180 | 544 | 2320 | –
31 | KLLSTSNVIT | ≥ 70000 | 1120 | 3350 | 2260 | 1550 | –
32 | RILGAGCFV | – | – | – | – | – | IC50 (HLA-A*68:02; source organism: SARS-CoV1): 7010 nM; IC50 (HLA-A*02:01; source organism: SARS-CoV1): 20 nM; IC50 (HLA-A*02:03; source organism: SARS-CoV1): 53 nM; IC50 (HLA-A*02:02; source organism: SARS-CoV1): 24 nM; IC50 (HLA-A*02:06; source organism: SARS-CoV1): 38 nM
33 | CLTVPNITI | 8000 | 1190 | 75 | 96 | 1660 | –
34 | LIYRQLTSNV | 6390 | 663 | 7.5 | 79 | 169 | –
